Assay results: publication PMC5225419

Target: full length (FL) human recombinant TPPP/p25 (Tubulin Polymerization Promoting Protein) (human) (UniProt O94811)
Experiment: SDS-PAGE without reducing agent; 5 ug protein from the 200 uM stock solution loaded directly onto the gel in the absence of DTE; disulphide-stabilized dimers

## full length (FL) human recombinant TPPP/p25 (Tubulin Polymerization Promoting Protein) (from UniProt O94811 1-219) (natural protein; other documents disagree on this pair)
  stoichiometry N: 2
